Experimental data taken from patent US12312412 (dated 2025).
Numbering of substitutions follows the chain as printed. Names and notes keep the numbering of the source.

B1: MA 09-H7 CC (T3S) (antibody, V domains shown)
VH: QITLKESGPALVKPTQTLTLTCTFSGFSFTTHKMGVDWIRQPPGKCLEWLALIYWNDDKRYSPSLQSRLTITKDTSKNQVVLTMTNMDPVDTATYYCAYRRYNWNYENWFDPWGQGTLVTVSS
VL: DIQMTQSPSSLSASVGDRVTITCQASQDISNYLNWYQQKPGKAPKLLIYAASSLQSGVPSRFSGSGSGTDFTLTISSLQPEDFATYYCQQSYFPVVEFGCGTKVEIK
B2: MA 03-H12_AS CC (K5A) (antibody, V domains shown)
VH: EVQLLESGGGLVQPGGSLRLSCAASGFTFSSHAMSWVRQAPGKCLEWVSAISGSGGGTYNAASVKGRFTISRDNSKNTLYLQMNSLRAEDTAAYYCVTGKGVHLGFDYWGQGTLVTVSS
VL: SYVLTQPPSVSVAPGQTARITCGGNNIGSKSVHWYQQKPGQAPVMVVYDDNDRPSGIPERFSGSNFGNTATLTISRVEAGDEADYYCQVWDYVTPRWVFGCGTKLTVL
B3: MA 03-C7_AS CC (G2H) (antibody, V domains shown)
VH: B2 VH with N60Y, A93V, V97A
VL: B2 VL with F66S, V93E, T94R, R96A, W97M
B4: MA 10-H3 CC (M9L) (antibody, V domains shown)
VH: EVQLVESGGGLVQPGGSLRLSCAASGFTFSNAWMSWVRQAPGKCLEWVGRIRSRPYGGTTDYAAPVKGRFTISRDDSKNTLYLQMNSLKTEDTAVYYCTTPSYSGSYYNYFSVMDVWGQGTTVTVSS
VL: DIQMTQSPSSLSASVGDRVTITCRTSQSISSYLNWYQQKPGRAPKLLIFAASSLQGGVPSRFSGSGSGTDFTLTISSLQPEDFATYYCQQTYSSPFTFGCGTKLEIK
B5: MA 03-G11_AS CC (O4R) (antibody, V domains shown)
VH: B2 VH with Q13K, N60Y, A93V, V97A, G105N
VL: B2 VL with M45L, T73I, V93L, T94L, R96G, W97Q
B6: MA 03-D12_AS CC (L6A) (antibody, V domains shown)
VH: B2 VH with N60Y, G66A, A93V, V97A
VL: B2 VL with F66S, V93L, T94R, P95Q, R96Q, W97Q

Each binder was assayed against MAGEB2 peptide … / HLA-A*02:01 / b2m (human) (assay: FACS).

| Binder | Kd |
| --- | --- |
| B1 | 0.8 nM |
| B2 | 1.1 nM |
| B3 | 1.5 nM |
| B4 | 0.7 nM |
| B5 | 1.3 nM |
| B6 | 0.7 nM |
